Laboratory results: publication PMC8182806, “Cryo-EM structures of the full-length human KCC2 and KCC3 cation-chloride cotransporters” (Cell Research, 2020)
Blank lines part the entries; values can stand above or below the molecule they belong to.

How the values were obtained:
[1] = biological target: human KCC3 (SLC12A6), K+-Cl- cotransporter 3, full length (human) (UniProt Q9UHW9); assay: cryo-EM structure; single particle cryo-EM of the purified full-length transporter, no inhibitor; KCC2 at 3.2 Å, KCC3 at 3.3 Å overall
[2] = biological target: the molecule itself; assay: as above

stoichiometry N [1]: 2
Molecule: human KCC3 (SLC12A6), K+-Cl- cotransporter 3, full length (from UniProt Q9UHW9-2 1-1099) (natural protein)

B1: human KCC2 (SLC12A5), K+-Cl- cotransporter 2, full length (natural protein, UniProt Q9H2X9 1-1139, looked up)
chain: MSRRFTVTSLPPAGPARSPDPESRRHSVADPRHLPGEDVKGDGNPKESSPFINSTDTEKGKEYDGKNMALFEEEMDTSPMVSSLLSGLANYTNLPQGSREHEEAENNEGGKKKPVQAPRMGTFMGVYLPCLQNIFGVILFLRLTWVVGIAGIMESFCMVFICCSCTMLTAISMSAIATNGVVPAGGSYYMISRSLGPEFGGAVGLCFYLGTTFAGAMYILGTIEILLAYLFPAMAIFKAEDASGEAAAMLNNMRVYGTCVLTCMATVVFVGVKYVNKFALVFLGCVILSILAIYAGVIKSAFDPPNFPICLLGNRTLSRHGFDVCAKLAWEGNETVTTRLWGLFCSSRFLNATCDEYFTRNNVTEIQGIPGAASGLIKENLWSSYLTKGVIVERSGMTSVGLADGTPIDMDHPYVFSDMTSYFTLLVGIYFPSVTGIMAGSNRSGDLRDAQKSIPTGTILAIATTSAVYISSVVLFGACIEGVVLRDKFGEAVNGNLVVGTLAWPSPWVIVIGSFFSTCGAGLQSLTGAPRLLQAISRDGIVPFLQVFGHGKANGEPTWALLLTACICEIGILIASLDEVAPILSMFFLMCYMFVNLACAVQTLLRTPNWRPRFRYYHWTLSFLGMSLCLALMFICSWYYALVAMLIAGLIYKYIEYRGAEKEWGDGIRGLSLSAARYALLRLEEGPPHTKNWRPQLLVLVRVDQDQNVVHPQLLSLTSQLKAGKGLTIVGSVLEGTFLENHPQAQRAEESIRRLMEAEKVKGFCQVVISSNLRDGVSHLIQSGGLGGLQHNTVLVGWPRNWRQKEDHQTWRNFIELVRETTAGHLALLVTKNVSMFPGNPERFSEGSIDVWWIVHDGGMLMLLPFLLRHHKVWRKCKMRIFTVAQMDDNSIQMKKDLTTFLYHLRITAEVEVVEMHESDISAYTYEKTLVMEQRSQILKQMHLTKNEREREIQSITDESRGSIRRKNPANTRLRLNVPEETAGDSEEKPEEEVQLIHDQSAPSCPSSSPSPGEEPEGEGETDPEKVHLTWTKDKSVAEKNKGPSPVSSEGIKDFFSMKPEWENLNQSNVRRMHTAVRLNEVIVKKSRDAKLVLLNMPGPPRNRNGDENYMEFLEVLTEHLDRVMLVRGGGREVITIYS
notes: K+-Cl- cotransporter KCC2 (SLC12A5), human, full length; Printed residues: Y407, N-terminal loop A65-N83; It says the KCC2 structure is very similar to that of KCC3; source: expressed and purified
binding result [2]: binds
